Test results from publication PMC7885266 (Chemical Science, 2020).
Where “and” joins values, the source holds several entries; their conditions need not be identical. Equal values may be shown once.

B1: Tankyrase-2 Ankyrin Repeat Cluster 4 (residues 488-649) (domain or fragment, human, UniProt Q9H2K2 488-649, looked up)
chain: GNSEADRQLLEAAKAGDVETVKKLCTVQSVNCRDIEGRQSTPLHFAAGYNRVSVVEYLLQHGADVHAKDKGGLVPLHNACSYGHYEVAELLVKHGAVVNVADLWKFTPLHEAAAKGKYEICKLLLQHGADPTKKNRDGNTPLDLVKDGDTDIQDLLRGDAAL
notes: human tankyrase 2, fourth ankyrin-repeat cluster (ARC4), residues 488-649; also called hTNKS2 ARC4; TNKS2 ARC4; source: E. coli, purified (IMAC, SEC; His tag removed with thrombin)
B2: 2TBP-CTPR4 (designed binder)
chain: AEAWYNLGNAYYKQGDYQKAIEYYQKALELDPNNREAGDGEEDPRSAEAWYNLGNAYYKQGDYQKAIEYYQKALELDPRSAEAWYNLGNAYYKQGDYQKAIEYYQKALELDPNNREAGDGEEDPRSAEAWYNLGNAYYKQGDYQKAIEYYQKALELDPRS
B3: 4TBP-CTPR8 (designed binder)
chain: AEAWYNLGNAYYKQGDYQKAIEYYQKALELDPNNREAGDGEEDPRSAEAWYNLGNAYYKQGDYQKAIEYYQKALELDPRSAEAWYNLGNAYYKQGDYQKAIEYYQKALELDPNNREAGDGEEDPRSAEAWYNLGNAYYKQGDYQKAIEYYQKALELDPRSAEAWYNLGNAYYKQGDYQKAIEYYQKALELDPNNREAGDGEEDPRSAEAWYNLGNAYYKQGDYQKAIEYYQKALELDPRSAEAWYNLGNAYYKQGDYQKAIEYYQKALELDPNNREAGDGEEDPRSAEAWYNLGNAYYKQGDYQKAIEYYQKALELDPRS
B4: 1TBP-CTPR2 (designed binder)
chain: AEAWYNLGNAYYKQGDYQKAIEYYQKALELDPNNREAGDGEEDPRSAEAWYNLGNAYYKQGDYQKAIEYYQKALELDPRS

Experiments:
Settings in all cases: both partners purified
1TBP-CTPR2 = molecular target: B4; assay: ITC; TNKS2 ARC4 (500 μM) titrated into the cell holding one nTBP-CTPR2n construct (50, 25, 16.6 or 12.5 μM); 25 °C; 10 mM sodium phosphate, 150 mM NaCl, 0.5 mM TCEP, pH 7.4; OneSite model
2TBP-CTPR4 = molecular target: B2; assay: as above
4TBP-CTPR8 = molecular target: B3; assay: as above
3TBP-CTPR6 [1] = molecular target: T1, 3TBP-CTPR6; assay: as above
T1 chain: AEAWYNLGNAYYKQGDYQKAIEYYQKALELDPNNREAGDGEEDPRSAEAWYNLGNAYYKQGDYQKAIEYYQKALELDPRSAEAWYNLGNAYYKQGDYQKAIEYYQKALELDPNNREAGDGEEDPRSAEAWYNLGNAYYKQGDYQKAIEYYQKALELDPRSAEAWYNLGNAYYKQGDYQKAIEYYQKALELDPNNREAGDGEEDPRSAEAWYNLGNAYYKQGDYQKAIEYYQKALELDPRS

[2] = molecular target: B1; assay: as above
3TBP-CTPR6 [3] = molecular target: T1, 3TBP-CTPR6; assay: co-sedimentation; co-precipitation assay: 10 μM hTNKS2 ARC1–3 mixed with an equal volume of CTPR protein (fixed or increasing concentrations) in 50 mM Tris-HCl, 150 mM NaCl, 0.5 mM TCEP, pH 7.3; 1 h at room temperature, 20 000g 30 min; supernatant and pellet on SDS-PAGE, band densities give the stoichiometry in the pellet

Binder: B1
- stoichiometry N (1TBP-CTPR2): 1.01 and 0.9
- stoichiometry N (2TBP-CTPR4): 2.18 and 2.05
- stoichiometry N (4TBP-CTPR8): 3.38 and 2.91
- stoichiometry N (3TBP-CTPR6 [1]): 2.77 and 2.72

Binder: B2
- Kd [2]: 11.9 µM and 18.6 µM

Binder: B3
- Kd [2]: 13.6 µM and 15.5 µM

Binder: B4
- Kd [2]: 14.7 µM and 12.8 µM

B5: Tankyrase-2 Ankyrin Repeat Clusters 1-3 (residues 2-485) (domain or fragment, human, UniProt Q9H2K2 2-485, looked up)
chain: SGRRCAGGGAACASAAAEAVEPAARELFEACRNGDVERVKRLVTPEKVNSRDTAGRKSTPLHFAAGFGRKDVVEYLLQNGANVQARDDGGLIPLHNACSFGHAEVVNLLLRHGADPNARDNWNYTPLHEAAIKGKIDVCIVLLQHGAEPTIRNTDGRTALDLADPSAKAVLTGEYKKDELLESARSGNEEKMMALLTPLNVNCHASDGRKSTPLHLAAGYNRVKIVQLLLQHGADVHAKDKGDLVPLHNACSYGHYEVTELLVKHGACVNAMDLWQFTPLHEAASKNRVEVCSLLLSYGADPTLLNCHNKSAIDLAPTPQLKERLAYEFKGHSLLQAAREADVTRIKKHLSLEMVNFKHPQTHETALHCAAASPYPKRKQICELLLRKGANINEKTKEFLTPLHVASEKAHNDVVEVVVKHEAKVNALDNLGQTSLHRAAYCGHLQTCRLLLSYGCDPNIISLQGFTALQMGNENVQQLLQEGI
notes: human tankyrase 2, ankyrin-repeat clusters 1-3, residues 2-485; also called hTNKS2 ARC1–3; source: E. coli, purified (IMAC, SEC; His tag removed with thrombin)
- stoichiometry N (3TBP-CTPR6 [3]): 1
